To fix the notation:
T1: IL2R alpha (CD25) (UniProt P01589 22-213)
T1 chain: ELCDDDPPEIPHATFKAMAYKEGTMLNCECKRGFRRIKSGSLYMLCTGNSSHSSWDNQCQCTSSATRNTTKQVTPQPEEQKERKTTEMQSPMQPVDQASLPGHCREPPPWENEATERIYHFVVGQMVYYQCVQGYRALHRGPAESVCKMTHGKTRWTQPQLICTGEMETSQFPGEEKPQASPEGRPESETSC

T2: IL2R beta (CD122) (UniProt P14784 27-239)
T2 chain: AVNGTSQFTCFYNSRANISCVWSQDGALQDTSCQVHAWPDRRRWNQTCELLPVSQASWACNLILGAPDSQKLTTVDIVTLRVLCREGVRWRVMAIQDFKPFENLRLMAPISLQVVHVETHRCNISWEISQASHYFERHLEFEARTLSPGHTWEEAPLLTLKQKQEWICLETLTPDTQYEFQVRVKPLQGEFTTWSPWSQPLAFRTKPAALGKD

T3: IL13Rα Protein, Human, Recombinant, His Tag (human IL13Rα1) (human, UniProt P78552 22-343)
T3 chain: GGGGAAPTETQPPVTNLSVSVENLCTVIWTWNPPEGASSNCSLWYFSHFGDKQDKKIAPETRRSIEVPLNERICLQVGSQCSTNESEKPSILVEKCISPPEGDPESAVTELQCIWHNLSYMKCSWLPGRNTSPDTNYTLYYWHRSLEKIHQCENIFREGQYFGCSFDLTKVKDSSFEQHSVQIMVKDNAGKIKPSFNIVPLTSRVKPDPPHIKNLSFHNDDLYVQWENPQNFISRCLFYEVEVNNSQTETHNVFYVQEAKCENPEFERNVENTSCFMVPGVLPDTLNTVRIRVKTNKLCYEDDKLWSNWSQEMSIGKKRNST

T4: IL13Rα2 Protein, Human, Recombinant, His Tag (human, UniProt Q14627 27-343)
T4 chain: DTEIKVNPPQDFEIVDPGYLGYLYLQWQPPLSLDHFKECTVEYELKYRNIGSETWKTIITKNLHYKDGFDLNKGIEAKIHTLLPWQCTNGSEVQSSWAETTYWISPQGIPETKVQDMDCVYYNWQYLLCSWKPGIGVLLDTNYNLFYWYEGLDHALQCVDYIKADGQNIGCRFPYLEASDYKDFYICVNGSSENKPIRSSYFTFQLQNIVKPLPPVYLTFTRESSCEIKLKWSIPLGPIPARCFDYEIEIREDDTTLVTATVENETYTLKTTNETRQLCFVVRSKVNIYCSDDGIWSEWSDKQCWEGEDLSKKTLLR

B1: MDNA109-Fc (2nd Gen.) (protein)
chain: APTSSSTKKTQLQLEHLLLDLQMILNGINNYKNPKLTRMLTFKFYMPKKATELKHLQCLEEELKPLEEVLNLAQSKNFHFDPRDVVSNINVFVLELKGSETTFMCEYADETATIVEFLNRWITFCQSIISTLTGGGGSGGGGSGGGGSDKTHTCPPCPAPELLGGPSVFLFPPKPKDTLMISRTPEVTCVVVDVSHEDPEVKFNWYVDGVEVHNAKTKPREEYASTYRVVSVLTVLHQDWLNGKEYKCKVSNKALPAPIEKTISKAKGQPREPQVYTLPPSREEMTKNQVSLTCLVKGFYPSDIAVEWESNGQPENNYKTTPPVLDSDGSFFLYSKLTVDKSRWQQGNVFSCSVMHEALHNHYTQKSLSLSPGK
B2: CD122 (IL-2Rβ) (receptor)
chain: T2 chain
B3: CD25 (IL-2Rα) (receptor)
chain: T1 chain
B4: B4 (protein)
chain: PGPVPPSTALSELIEELINITQNQKAPLCNGSMVWSINLTAGMYCAALESLINVSGCSAIEKTQRMLSGFCPHKVSAGQFSSLHVKGSMIEVAQFVKDLLYHLRTLFREGQFN
B5: B2 (protein)
chain: B4 chain with S11R, K86T, M89K, T105A
B6: A11 (protein)
chain: B4 chain with L10V, S11R, K86R, G87S, M89K, Y101F
B7: A5 (protein)
chain: B4 chain with S11I, M89K, Y101H, T105A, F107M
B8: A7 (protein)
chain: B4 chain with L10I, S11R, K86R, M89K, Y101H, T105A
B9: A8 (protein)
chain: B4 chain with L10I, S11R, K86R, G87S, M89R, Y101H
B10: A6 (protein)
chain: B4 chain with L10I, S11R, I18L, K86M, G87K, M89K, Y101H, T105A
B11: B6 (protein)
chain: B4 chain with L10T, S11R, K86R, M89K
B12: C12 (protein)
chain: B4 chain with L10H, S11R, I18V, K86M, G87D, M89R, Y101N, T105A, R108K
B13: C4 (protein)
chain: PGPVPPSTAVRELIEELVNITQNQKAPLCNGSMVWSINLTAGMYCAALESLINVSGCSAIEKTQRMLSGFCPHKVSAGQFSSLHVRDTRIEVAQFVKDLLNHLKELFTEGQFN
B14: C10 (protein)
chain: B13 chain with V10H, R11L, V18I, R86M, N101L, E105K, T108K
B15: C2 (protein)
chain: B13 chain with V10D, R11I, V18I, R86K, D87K, N101L, E105K, T108K
B16: C7 (protein)
chain: B13 chain with V10L, R11S, I14M, T88S, R89K, E105A, T108K
B17: D7 (protein)
chain: B13 chain with V10A, V18F, R86K, D87K, N101I, K104R, E105K, T108K
B18: C11 (protein)
chain: B13 chain with V10H, R86T, D87G, T88R, R89K, N101L, E105K, T108K
B19: C3 (protein)
chain: B13 chain with V10A, R86T, D87G, T88K, K104R, E105A, T108K
B20: C9 (protein)
chain: B13 chain with V10H, R11L, V18I, R86K, D87E, E105T, T108K

These results are taken from patent publication US20230365642A1 (published 2023).

Numbering of substitutions follows the chain as printed.

For the first experiment, the target named is T1, IL2R alpha (CD25). Nature of the experiment: BLI. Background: In BLI a coated tip is dipped into the sample, and binding shifts an interference pattern.
Broadly, the Kd is the constant that tells how readily two partners part at equilibrium. Turning to B1, binding was put at a Kd of 14 nM.

The next experiment deals with T2, IL2R beta (CD122). Nature of the experiment: BLI.
In turn, B1 gave an equilibrium dissociation constant (Kd) of 2.7 nM.

A further experiment deals with MDNA109-Alb (2nd Gen.). As to the kind of experiment: BLI.
Take B2: the Kd was 3.5 nM.
The same measure, in the same setting: the value for B3 was 56 nM.

A further experiment deals with MDNA109 (1st Gen.). Nature of the experiment: BLI.
B2 came in with a Kd of 1.8 nM.
Molecule B3 had a Kd of 26 nM.

The target of another experiment is MDNA19 (3rd Gen.). As to the kind of experiment: BLI.
In turn, B2 came in with a Kd of 2.1 nM.

For the next experiment, the target named is T3, IL13Rα Protein, Human, Recombinant, His …. Nature of the experiment: SPR; kinetic.
Consider B4, for which the Kd amounted to 18 nM.
In the case of B5, the Kd was found to be 0.275 nM.
Still for that read-out and setting: the value for B6 was 0.084 nM; that for B7 was 2.94 nM; that for B8 was 1.18 nM.
Turning to B9, the Kd turned out to be 2.06 nM.
The same measure, in the same setting: the value for B10 was 1.9 nM.
On the same count and under the same terms, the value for B11 was 5.9 nM.

The target of another experiment is T4, IL13Rα2 Protein, Human, Recombinant, …. As to the kind of experiment: SPR; kinetic. For orientation: In SPR one partner is held on a chip, and binding of the other changes the refractive index at the surface.
In the case of B12, the Kd amounted to 0.053 nM.
On the same count and under the same terms, under B13 stands 0.393 nM; under B5, 1.5 nM.
As to B14, the Kd amounted to 5 nM.
In the case of B6, the Kd was 0.391 nM.
The same measure, in the same setting: the value for B15 was 0.025 nM; that for B16 was 0.272 nM; that for B8 was 0.218 nM.
The same measure, in the same setting: under B17 stands 0.003 nM.
As for B9, the Kd is 0.263 nM.
Same read-out and setting: under B18 stands 0.0001 nM; under B10, 0.267 nM.
Same read-out and setting: under B19 stands 0.379 nM.
Still for that read-out and setting: the value for B20 was 0.259 nM.

A further experiment addresses T3, IL13Rα Protein, Human, Recombinant, His …. Nature of the experiment: SPR; equilibrium.
Regarding B12, the Kd was 15000 nM.
Still for that read-out and setting: under B13 stands 36000 nM; under B14, 264 nM.
As to B15, the Kd turned out to be 4000 nM.
Turning to B16, the Kd was found to be 35000 nM.
Turning to B17, the dissociation constant Kd is 4100 nM.
The same measure, in the same setting: the value for B18 was 3600 nM; that for B19 was 16000 nM.
The same measure, in the same setting: the value for B20 was 31000 nM.

For another experiment, the target named is T4, IL13Rα2 Protein, Human, Recombinant, …. Nature of the experiment: SPR; equilibrium.
As for B4, the Kd is 108 nM.
Consider B7, for which the Kd worked out at 50 nM.
On the same count and under the same terms, the value for B11 was 53 nM.
